# Experimental data as given in paper PMC11199706.
# Key:
# [1] = biological target: NOPLight (human (NOPR part)); test: fluorescence response of the sensor in acute brain slices (off kinetics); NOPLight expressed in mouse brain (AAV), slices at 31 °C in aCSF, 50 nL of N/OFQ at 10, 50 or 500 nM puffed onto the slice
# [2] = biological target: NOPLight (human (NOPR part)); test: fluorescence response of the sensor in acute brain slices; NOPLight expressed in the mouse arcuate nucleus (AAV), coronal slices perfused with aCSF pH 7.2, increasing N/OFQ (5 nM to 10 µM) bath-applied for 10 min each
# [3] = biological target: NOPLight (human (NOPR part)); test: fluorescence response of the sensor on cells (line-scan confocal imaging, kinetics); NOPLight on HEK293T cells, 37 °C, N/OFQ applied in bolus with Red-Dextran dye, line scan at 800 Hz, mono-exponential association fit
# [4] = biological target: NOPLight (human (NOPR part)); test: other fluorescence titration; apparent; NOPLight on transfected HEK293T cells in HBSS, N/OFQ applied manually during confocal imaging (20x), normalised ΔF/F0 fitted with a three-parameter Hill equation
# [5] = biological target: NOPLight (human (NOPR part)); test: fluorescence response of the sensor on cells (confocal imaging); sensor on AAV-transduced cultured rat cortical neurons in HBSS, 1 µM N/OFQ, ΔF/F0 of membrane pixels
# [6] = biological target: NOPLight (human (NOPR part)); test: fluorescence response of the sensor on cells (wash-off kinetics); NOPLight on HEK293T cells on coverslips, 37 °C HBSS, 500 nM N/OFQ bath-applied, perfusion turned on after 30 s, mono-exponential decay fit
# [7] = biological target: NOPLight (human (NOPR part)); test: other fluorescence titration; apparent; NOPLight on AAV-transduced cultured rat cortical neurons in HBSS, N/OFQ applied manually during confocal imaging (20x), normalised ΔF/F0 fitted with a three-parameter Hill equation
# [8] = biological target: NOPLight (human (NOPR part)); test: fluorescence response of the sensor on cells (wash-off kinetics); NOPLight on HEK293T cells under constant perfusion with 37 °C HBSS, about 50 nL of 100 µM N/OFQ puffed onto the cells, mono-exponential decay fit
# [9] = biological target: NOPLight (human (NOPR part)); test: fluorescence response of the sensor on cells (confocal imaging); sensor on transfected HEK293T cells in HBSS, ligand pipetted in at one concentration (1 µM where stated), ΔF/F0 of membrane pixels
binder,measurement,setting,value
FGGFTGARKSARKLANQ [nociceptin/orphanin-FQ peptide],τoff at 10 nM N/OFQ,[1],30.9 s
same,τoff at 50 nM N/OFQ,[1],41.1 s
same,τoff at 500 nM N/OFQ,[1],53.1 s
same,ΔF/F0 at 10 nM N/OFQ,[2],1.9%
same,ΔF/F0 at 10 µM N/OFQ,[2],73%
same,τON (time constant of signal activation),[3],595 ms
same,EC50,[4],28.6 nM
same,ΔF/F0 upon N/OFQ (1 µM),[5],378%
same,τoff (bath application),[6],57.1 s
same,EC50,[7],42.8 nM
same,τoff (localized puff application),[8],29.9 s
same,ΔF/F0 upon N/OFQ (1 µM),[9],388%
